The series deals with the molecule itself. The series is described as follows: solid-state (MAS) NMR of fibrils; synthetic peptide aggregated at 1 mg/mL in PBS pH 7.4 at 37 °C, harvested by centrifugation after 2-3 weeks; 1H-15N HETCOR, 13 kHz MAS, 275 K.

Square brackets hold non-standard residues; d marks the D form. Ends that are not written are not given here.

B1: K2Q11pGQ11K2 polyQ peptide (peptide)
peptide: KKQQQQQQQQQQQ[dP]GQQQQQQQQQQQKK
modifications: also: two sequential Gln uniformly 13C,15N labelled, positions not given here
notes: written out from the printed formula K2Q11pGQ11K2; p is D-proline; also called polyQ model peptide; source: synthetic peptide (Yale University peptide facility)
Turning to B1, the binding result was “binds”.
